{"source": "patent US20250250357A1", "about": "(NANJING ZAIMING PHARMACEUTICAL, published 2025)", "key": {"[1]": {"target": "T1, human MSLN-R3-his protein (human, UniProt Q13421 487-598)", "T1 construct": "also called hMSLN-R3-his; not shown: His tag", "T1 sequence (Q13421 495-606)": "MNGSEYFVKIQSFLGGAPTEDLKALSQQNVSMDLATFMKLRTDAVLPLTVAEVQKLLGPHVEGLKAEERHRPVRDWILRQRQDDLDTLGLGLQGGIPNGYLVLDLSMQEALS", "test": "ELISA; antibody 10 nM"}, "[2]": {"target": "T2, human MSLN protein, endogenously expressed on Hela and OVCAR3 cells (human, UniProt Q13421 296-598)", "T2 construct": "whole, on cells; also called mesothelin", "T2 sequence (Q13421 other isoform, or with tags, fused parts or gaps)": "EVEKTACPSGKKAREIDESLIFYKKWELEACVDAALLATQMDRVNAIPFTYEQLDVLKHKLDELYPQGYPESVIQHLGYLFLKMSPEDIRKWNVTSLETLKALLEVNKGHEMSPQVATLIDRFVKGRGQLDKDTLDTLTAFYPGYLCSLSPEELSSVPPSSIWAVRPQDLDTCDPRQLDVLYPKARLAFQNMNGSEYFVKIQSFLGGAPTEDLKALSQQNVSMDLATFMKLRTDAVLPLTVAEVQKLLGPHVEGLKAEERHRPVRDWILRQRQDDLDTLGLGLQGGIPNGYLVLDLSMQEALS", "test": "FACS on OVCAR3 cells; antibody 0.0064 nM"}, "[3]": {"target": "T2, human MSLN protein, endogenously …", "test": "FACS on OVCAR3 cells; antibody 0.8 nM"}, "[4]": {"target": "T3, human MSLN-FL-his protein (human, UniProt Q13421 296-580)", "T3 construct": "made in HEK293E cells, purified on nickel column; also called hMSLN-FL-his; human MSLN full-length protein; not shown: His tag", "test": "competitive ELISA; row F2.24.10", "T3 sequence (Q13421 other isoform, or with tags, fused parts or gaps)": "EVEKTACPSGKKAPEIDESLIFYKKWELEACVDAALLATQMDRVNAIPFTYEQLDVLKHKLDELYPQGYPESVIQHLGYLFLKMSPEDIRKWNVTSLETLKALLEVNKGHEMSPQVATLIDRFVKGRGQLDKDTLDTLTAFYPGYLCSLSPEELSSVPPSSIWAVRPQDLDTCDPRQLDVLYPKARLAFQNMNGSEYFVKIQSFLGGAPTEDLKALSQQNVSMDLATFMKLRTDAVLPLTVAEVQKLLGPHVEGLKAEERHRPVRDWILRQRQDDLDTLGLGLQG"}, "[5]": {"target": "T1, human MSLN-R3-his protein", "test": "ELISA; antibody 100 nM"}, "[6]": {"target": "T4, human MSLN-R2-his protein (human, UniProt Q13421 391-486)", "T4 construct": "also called hMSLN-R2-his; not shown: His tag", "T4 sequence (Q13421 other isoform, or with tags, fused parts or gaps)": "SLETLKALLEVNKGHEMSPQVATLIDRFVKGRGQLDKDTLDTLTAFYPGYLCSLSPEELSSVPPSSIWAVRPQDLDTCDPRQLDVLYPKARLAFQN", "test": "ELISA; antibody 0.01 nM"}, "[7]": {"target": "T1, human MSLN-R3-his protein", "test": "ELISA; antibody 0.001 nM"}, "[8]": {"target": "T1, human MSLN-R3-his protein", "test": "ELISA; antibody 0.1 nM"}, "[9]": {"target": "T1, human MSLN-R3-his protein", "test": "ELISA; antibody 0 nM (blank)"}, "[10]": {"target": "T3, human MSLN-FL-his protein", "test": "competitive ELISA; row F2.58.8", "description": "(§1) In order to identify antigen-binding sites of antibodies, MSLN chimeric antibodies were grouped using competitive ELISA.\n(§2) The chimeric antibodies were diluted to 2 μg/mL with PBS and allowed to coat 96-well high-adsorption ELISA plates at 50 μL/well. After the plates were coated at 4° C. overnight, 250 μL of a blocking buffer (PBS containing 2% (w/w) BSA) was added for two hours of blocking at room temperature. 40 μg/mL of the antibodies to be tested were added, and then the human MSLN-FL-His protein with an EC₈₀ concentration corresponding to each of the antibodies to be tested was added for incubation for 2 h. The plates were washed 5 times with PBS, an HRP-labeled anti-His secondary antibody (purchased from Genescript, Cat. No. A00612) was then added for incubation for 1 h, and the plates were washed 5 times again. A TMB substrate was added at 50 μL/well, and after 10 minutes of incubation at room temperature, a stop solution (1.0 M HCl) was added at 50 μL/well. OD₄₅₀ nm values were read using an ELISA plate reader (Insight, purchased from PerkinElmer), and the competition rate between the antibodies was calculated according to the OD₄₅₀ nm values using a formula."}, "[11]": {"target": "T3, human MSLN-FL-his protein", "test": "competitive ELISA; row F2.16.10", "description": "as §1, §2"}, "[12]": {"target": "T4, human MSLN-R2-his protein", "test": "ELISA; antibody 0 nM (blank)"}, "[13]": {"target": "T3, human MSLN-FL-his protein", "test": "competitive ELISA; row F1.35.24", "description": "as §1, §2"}, "[14]": {"target": "T1, human MSLN-R3-his protein", "test": "ELISA; antibody 0.01 nM"}, "[15]": {"target": "T3, human MSLN-FL-his protein", "test": "competitive ELISA; row F2.13.3", "description": "as §1, §2"}, "[16]": {"target": "T2, human MSLN protein, endogenously …", "test": "FACS on OVCAR3 cells; antibody 0.16 nM"}, "[17]": {"target": "T3, human MSLN-FL-his protein", "test": "competitive ELISA; row F2.39.3", "description": "as §1, §2"}, "[18]": {"target": "T2, human MSLN protein, endogenously …", "test": "FACS on OVCAR3 cells; antibody 0.032 nM"}, "[19]": {"target": "T3, human MSLN-FL-his protein", "test": "competitive ELISA; row F1.56.1", "description": "as §1, §2"}, "[20]": {"target": "T4, human MSLN-R2-his protein", "test": "ELISA; antibody 0.001 nM"}, "[21]": {"target": "T3, human MSLN-FL-his protein", "test": "competitive ELISA; row F2.17.3", "description": "as §1, §2"}, "[22]": {"target": "T4, human MSLN-R2-his protein", "test": "ELISA; antibody 1 nM"}, "[23]": {"target": "T2, human MSLN protein, endogenously …", "test": "FACS on OVCAR3 cells; antibody 0.00128 nM"}, "[24]": {"target": "T1, human MSLN-R3-his protein", "test": "ELISA; antibody 1 nM"}, "[25]": {"target": "T3, human MSLN-FL-his protein", "test": "competitive ELISA; row Tab108 (R3)", "description": "as §1, §2"}, "[26]": {"target": "T2, human MSLN protein, endogenously …", "test": "FACS on OVCAR3 cells; antibody 20 nM"}, "[27]": {"target": "T5, human MSLN-FL-his protein (human, UniProt Q13421 296-580)", "T5 construct": "also called hMSLN-FL-his; human MSLN full-length protein; not shown: His tag", "test": "ELISA; antibody 1 nM"}, "[28]": {"target": "T1, human MSLN-R3-his protein", "test": "ELISA; antibody 1 nM", "remark": "listed apart in the source"}, "[29]": {"target": "T4, human MSLN-R2-his protein", "test": "ELISA; antibody 1 nM", "remark": "listed apart in the source"}, "[30]": {"target": "T6, human MSLN-R1-his protein (human, UniProt Q13421 296-390)", "T6 construct": "also called hMSLN-R1-his; human MSLN-R1 protein; not shown: His tag", "T6 chain": "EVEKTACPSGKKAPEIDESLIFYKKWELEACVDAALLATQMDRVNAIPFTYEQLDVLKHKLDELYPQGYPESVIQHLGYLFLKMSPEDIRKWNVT", "test": "ELISA; antibody 1 nM"}, "[31]": {"target": "T3, human MSLN-FL-his protein", "test": "competitive ELISA; row Tab107 (conformation)", "description": "as §1, §2"}}}
{"binder": "Tab107 (YP3, hIgG1) (antibody, V domains shown, Control antibody; VH and VL recombined into human IgG1 CH and CL expression vectors; also called YP3 human IgG1 antibody) VH: QEQLVESGGGLVQPGASLTLTCTASGIDFSRYYMCWVRQAPGKGLEGIACIYIGGSGSTYYASWAKGRFTISKASSTTVTLQMTSLTAADTATYFCARGTNLNYIFRLWGPGTLVTVSS VL: DVVMTQTPSPVSAAVGGTVTIKCQASQSINNGLAWYQQKPGQPPRLLIYSASNLESGVPSRFKGSGSGTEFTLTISDLECDDAATYYCQCIWDGNSYVNAFGGGTEVVVRT", "values": [{"measurement": "OD450 nm", "setting": "[1]", "value": 0.05}, {"measurement": "FACS fluorescence intensity", "setting": "[2]", "value": 80}, {"measurement": "FACS fluorescence intensity", "setting": "[3]", "value": 619}, {"measurement": "competition rate", "setting": "[4]", "value": -19, "unit": "%"}, {"measurement": "OD450 nm", "setting": "[5]", "value": 0.09}, {"measurement": "OD450 nm", "setting": "[6]", "value": 0.04}, {"measurement": "OD450 nm", "setting": "[7]", "value": 0.05}, {"measurement": "OD450 nm", "setting": "[8]", "value": 0.05}, {"measurement": "OD450 nm", "setting": "[9]", "value": 0.05}, {"measurement": "competition rate", "setting": "[10]", "value": 9, "unit": "%"}, {"measurement": "competition rate", "setting": "[11]", "value": -104, "unit": "%"}, {"measurement": "OD450 nm", "setting": "[12]", "value": 0.05}, {"measurement": "competition rate", "setting": "[13]", "value": 8, "unit": "%"}, {"measurement": "OD450 nm", "setting": "[14]", "value": 0.04}, {"measurement": "competition rate", "setting": "[15]", "value": -203, "unit": "%"}, {"measurement": "FACS fluorescence intensity", "setting": "[16]", "value": 229}, {"measurement": "competition rate", "setting": "[17]", "value": -24, "unit": "%"}, {"measurement": "FACS fluorescence intensity", "setting": "[18]", "value": 111}, {"measurement": "competition rate", "setting": "[19]", "value": -124, "unit": "%"}, {"measurement": "OD450 nm", "setting": "[20]", "value": 0.05}, {"measurement": "competition rate", "setting": "[21]", "value": -86, "unit": "%"}, {"measurement": "OD450 nm", "setting": "[22]", "value": 0.05}, {"measurement": "FACS fluorescence intensity", "setting": "[23]", "value": 76}, {"measurement": "OD450 nm", "setting": "[24]", "value": 0.05}, {"measurement": "competition rate", "setting": "[25]", "value": -80, "unit": "%"}, {"measurement": "FACS fluorescence intensity", "setting": "[26]", "value": 2640}, {"measurement": "OD450 nm", "setting": "[27]", "value": 1.74}, {"measurement": "OD450 nm", "setting": "[28]", "value": 0.05}, {"measurement": "OD450 nm", "setting": "[29]", "value": 0.05}, {"measurement": "OD450 nm", "setting": "[30]", "value": 0.05}, {"measurement": "competition rate", "setting": "[31]", "value": 94, "unit": "%"}]}
